The Human Domainome abundance scans (Beltran et al. 2025)

B1: Metastasis-associated protein MTA3, residues 265 to 317; numbered along this chain, Q9BTC8 (parent)
chain: RDEMEEWSASEASLFEEALEKYGKDFNDIRQDFLPWKSLTSIIEYYYMWKTTD
B2: POU domain, class 3, transcription factor 3, residues 320 to 388; numbered along this chain, P20264 (parent)
chain: DDLEQFAKQFKQRRIKLGFTQADVGLALGTLYGNVFSQTTICRFEALQLSFKNMCKLKPLLNKWLEEAD

Variants of: B1
Test: abundance fitness (aPCA) (normalised: wild type 0, dead -1); higher = more abundant; growth selection in yeast, the domain comes from the species named
Details: Homo sapiens

Abundance fitness of substitutions, site by site:
D25: M -0.25 | N 0.356 | Q 0.088 | S 0.366 | T -0.838 | V -0.818 | W -0.776 | Y -0.392
F26: S -0.959
N27: A -0.015 | D 0.074 | E 0.431 | I 0.743 | L -0.602 | M -0.464 | Q -0.075 | S 0.037 | T -0.148 | V -0.246 | W -0.635 | Y -0.305
D28: A 0.861 | C 0.882 | E 0.305 | F -0.015 | G 0.079 | I 0.324 | K 0.9 | L 0.978 | M 0.331 | N -0.112 | P -0.522 | Q 1.19 | R 0.549 | S 0.644 | T 0.59 | W 0.035 | Y 0.322
D32: S 1.09
F33: L -0.169
W36: A -0.788 | C -0.733 | E -0.884 | G -0.484 | H -0.239 | I -0.874 | K -0.217 | L -0.749 | M -0.677 | N -0.177 | Q -0.422 | R -0.58 | S -0.645 | T -0.696 | V -0.657 | Y -0.615
K37: C -0.763 | D -0.707 | E -0.806 | F -0.785 | G -0.812 | H -0.941 | I -0.586 | L -0.802 | M -0.719 | N -0.803 | P -0.877 | R -0.398 | S -0.65 | T -0.88 | V -0.842 | W -0.84 | Y -0.806
S38: C -0.995 | D -0.71 | E 0.047 | F -0.844 | G 0.47 | H -0.425 | I -0.629 | K -0.852 | L -0.69 | M -0.159 | P -0.563 | Q -0.393 | R -0.749 | V -0.821 | W -0.992 | Y -0.711
L39: A -0.6 | C -0.733 | D -0.483 | E -0.865 | G -0.896 | M -0.541 | R -0.348 | S -0.581 | T -0.389 | V -0.327
T40: A -0.322 | C -0.328 | D 0.195 | F -0.875 | G -0.188 | H -0.138 | I -0.771 | L -0.827 | M -0.435 | N 0.129 | P -0.332 | Q 0.195 | R -0.029 | S -0.336 | V -0.714 | W -0.898 | Y -0.571
S41: A -0.139 | C -0.681 | D 0.05 | E 0.161 | F -0.54 | G -0.954 | H -0.717 | I -1.09 | K -0.781 | L -0.577 | M -0.794 | N -0.561 | P 0.242 | Q -0.226 | R -0.868 | T -0.804 | V -0.837 | W -0.901 | Y -0.488
I42: A -0.98 | C -0.711 | D -0.828 | E -0.888 | F -0.634 | H -0.744 | L -0.658 | M -0.833 | P -0.798 | Q -0.875 | R -0.69 | S -0.713 | T -0.605 | V -0.475 | W -0.204 | Y -0.572
I43: A -0.148 | C -0.517 | D -1.11 | E 0.392 | F -0.474 | G -0.491 | H -0.075 | K 0.268 | L -0.689 | M -0.01 | N -0.7 | P -0.875 | Q 0.136 | R 0.162 | S -0.297 | T -0.193 | V -0.381 | W -0.559 | Y -0.304
E44: A -0.477 | C -0.808 | D -0.145 | G -0.691 | H -0.438 | I -0.779 | K -0.246 | L -0.694 | M -0.961 | N 0.177 | P -0.922 | Q 0.015 | R 0.079 | T -0.443 | V -0.758 | W -1.05 | Y -0.834
Y45: E -0.77 | G -0.98 | M -0.872 | P -0.726 | Q -0.566 | R -0.174 | S -0.561 | T -0.41 | V -1.01 | W -0.546
Y46: A -0.824 | C -0.976 | E -0.531 | G -0.422 | H -0.176 | K -0.791 | L -0.851 | M -0.99 | N -0.907 | P -0.598 | S -0.457 | V -0.98 | W -0.62
Y47: A 0.387 | C -0.187 | E 0.516 | G 0.027 | H 0.196 | K 0.375 | L -0.735 | N 0.053 | Q 0.329 | R 0.31 | S 0.325 | T 0.398 | V -0.681 | W -0.174
M48: A -0.006 | C -0.086 | D -0.619 | E -0.207 | F 0.204 | G -0.257 | K 0.128 | L -0.176 | N -0.144 | P -0.817 | Q 0.133 | R 0.323 | S -0.04 | T -0.103 | V -0.212 | W -0.256
W49: A -0.088 | C 0.061 | D -0.532 | E 0.075 | H 0.122 | I -0.04 | K 0.497 | L 0.112 | M 0.353 | N 0.404 | P -0.599 | Q 0.349 | R 0.514 | T 0.248 | V -0.204 | Y 0.077
K50: A -0.42 | C -0.279 | D -0.593 | E -0.278 | F -0.62 | G -0.877 | H -0.127 | I -0.653 | L -0.444 | M -0.171 | N 0.024 | P -0.472 | Q -0.102 | R -0.288 | S -0.2 | T -0.271 | V 0.311 | W -0.882
T51: A 0.185 | C -0.244 | D 0.134 | F -0.732 | G 0.076 | H -0.235 | L -0.147 | M -0.542 | N -0.027 | P -0.1 | Q 0.433 | R -0.097 | S -0.068 | V -0.624 | W -0.853 | Y 0.304
T52: A -0.097 | C 0.191 | D -0.251 | F -0.51 | G 0.001 | H -0.405 | I -0.292 | K 0.344 | L -0.298 | M -0.402 | N 0.2 | P -0.055 | R 0.08 | S -0.032 | V -0.097 | W -0.521 | Y -0.428
D53: A -0.135 | C 0.179 | G 0.066 | I -0.566 | N 0.211 | P -0.044 | R -0.164 | T -0.41 | V -0.336 | Y -0.543

Variants of: B2
Test: as above
Details: Homo sapiens

Abundance fitness: each site, then its substitutions
D1: N 0.529
D2: A 0.107 | E -0.031 | G -0.224 | I -0.238 | K 0.034 | L -0.272 | M -0.252 | P -0.339 | Q -0.159 | R -0.176 | S -0.119 | T 0.029 | V -0.95 | W -0.111
L3: A -1 | E -0.43
